This note sets out measurements from patent US20220235140A1 (HEDGEHOG, published 2022).

By Kd is commonly meant the concentration at which binding is half-saturated. High values mean lower affinity, low ones higher affinity.

The test concerns the target T1, human endothelin receptor type A (human, UniProt P25101 21-427, limits assumed).
T1 construct: Immobilized on plates coated with human Galpha-i3 such that its extracellular regions were selectively exposed; also called ETA
T1 sequence (looked up): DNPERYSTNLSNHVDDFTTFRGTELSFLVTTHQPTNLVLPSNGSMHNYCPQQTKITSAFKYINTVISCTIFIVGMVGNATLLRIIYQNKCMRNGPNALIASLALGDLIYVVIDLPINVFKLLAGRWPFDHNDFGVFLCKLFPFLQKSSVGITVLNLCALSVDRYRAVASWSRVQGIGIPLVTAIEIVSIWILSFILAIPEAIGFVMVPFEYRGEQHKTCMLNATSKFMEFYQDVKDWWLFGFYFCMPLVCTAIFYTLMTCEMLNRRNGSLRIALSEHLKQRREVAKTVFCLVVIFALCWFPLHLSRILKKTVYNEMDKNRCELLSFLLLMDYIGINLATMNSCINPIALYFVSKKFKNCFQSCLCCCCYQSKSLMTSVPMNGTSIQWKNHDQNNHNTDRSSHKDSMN
Nature of the test: ELISA, ETA immobilized via human Galpha-i3, antibody titrated. In general terms: In an ELISA, binding on a coated surface is turned into a signal by an enzyme label.

B1: AG8 (antibody, V domains shown)
VH: EVQLVESGAEVRKPGASVKVSCKASGYTFTSSDINWIRQATGQGLEWMGYMNPKNGNTDYAQKFQGRISMTRDSSISTAYMELSSLRSEDTAVYYCAKDRYGSGTYGFGMDVWGPGTLVT
VL: DIVMTQSPSAMSASVGDRVSITCRASQGINNYLAWFQQKPGKVPKRLMDVGSILQSGIPSRFRGRGSGTQFTLTISSLQAEDSGTYFCLQHNTYPLTFGPGTKVEIKR
In turn, B1 came in with a Kd of 26.1 nM.
